# Measured values as given in paper PMC3963902 (PLoS ONE, 2014).
# Legend:
# [1] = target: the molecule itself; assay: crystal structure; His-tagged Se-Met labelled LpEst1; 1 M sodium malonate, 0.5% (v/v) Jeffamine ED-2001, 100 mM HEPES pH 7.0, 5 mM DTT; space group I4, four molecules in the asymmetric unit; 2.05 A
# [2] = target: the molecule itself; assay: AUC; sedimentation equilibrium at 12,000 and 18,000 rpm; Gln189Glu mutant 10 uM in McIlvaine buffer pH 5.0 (Na2PO4, citric acid); fit to an ideal single species
# [3] = target: the molecule itself; assay: SEC; analytical gel filtration on Superdex 200 10/300 GL Tricorn; 20 mM Tris-HCl pH 8.0, 0.1 M NaCl, 5 mM DTT, 0.04% sodium azide; size from Kav against standards
protein,measurement,setting,value
"His-tagged, selenomethionine (Se-Met) labelled LpEst1 (enzyme, Lactobacillus plantarum WCFS1, UniProt Q88Y25 1-337, looked up, selenomethionine (Se-Met labelled), carboxylesterase LpEst1, Lactobacillus plantarum WCFS1, UniProtKB/Swiss-Prot Q88Y25; 337 residues; Methionines replaced by selenomethionine; incorporation checked by mass spectrometry; also called Se-Met LpEst1; Se-Met labelled LpEst1 esterase) MPTINSIQTTVNGVVKIVKPFNNDIAGEQFDPHVLQTLTAFKQPAILENDLAALRSGSLTPAIADPVGDAVTVQSRNITALNRTVSVEWLTPQNVINHTVLVYFHGGAFYGGVPGNNTVLLKLVAAKSHCEILNVDYSLAPEAPAPAGILDGLAIFQYLEQRDAETMITVAGDSAGANVIMAATNLNQQLGSNRINQQLLLYPVTAPNADHAGPLWDLAAFPIIDSQRAILTNYHDLFRQLDSIMTDYYVPENFDSHSPLISPLHQENFTMTPPTTIMVGEFDPFRPQAWAYAQRLAAADTATTFIQYQGLNHAFAPLVDQYWQSQDVAQVMAAALI",binding result,[1],binds
"LpEst1 Gln189Glu mutant (enzyme, Lactobacillus plantarum WCFS1, UniProt Q88Y25 1-337, looked up, carboxylesterase LpEst1, Lactobacillus plantarum WCFS1, UniProtKB/Swiss-Prot Q88Y25; 337 residues; single point mutant Gln189Glu; Made from the wild-type vector with the mutagenic primers printed in the methods; source: recombinant, point mutant of pURI3-TEV-LpEst1; purified (IMAC on a His-Trap FF column plus size exclusion chromatography, last step in McIlvaine buffer pH 5.0)) MPTINSIQTTVNGVVKIVKPFNNDIAGEQFDPHVLQTLTAFKQPAILENDLAALRSGSLTPAIADPVGDAVTVQSRNITALNRTVSVEWLTPQNVINHTVLVYFHGGAFYGGVPGNNTVLLKLVAAKSHCEILNVDYSLAPEAPAPAGILDGLAIFQYLEQRDAETMITVAGDSAGANVIMAATNLNQELGSNRINQQLLLYPVTAPNADHAGPLWDLAAFPIIDSQRAILTNYHDLFRQLDSIMTDYYVPENFDSHSPLISPLHQENFTMTPPTTIMVGEFDPFRPQAWAYAQRLAAADTATTFIQYQGLNHAFAPLVDQYWQSQDVAQVMAAALI",stoichiometry N,[2],2
"carboxylesterase LpEst1 from Lactobacillus plantarum WCFS1 (wild type, native) (enzyme, UniProt Q88Y25 1-337, looked up, carboxylesterase LpEst1, Lactobacillus plantarum WCFS1, UniProtKB/Swiss-Prot Q88Y25; 337 residues, about 36.7 kDa; complete protein molecules in the crystal model; The crystals were of His-tagged protein; also called native LpEst1; wild-type protein; source: recombinant, from the expression vector pURI3-TEV-LpEst1) MPTINSIQTTVNGVVKIVKPFNNDIAGEQFDPHVLQTLTAFKQPAILENDLAALRSGSLTPAIADPVGDAVTVQSRNITALNRTVSVEWLTPQNVINHTVLVYFHGGAFYGGVPGNNTVLLKLVAAKSHCEILNVDYSLAPEAPAPAGILDGLAIFQYLEQRDAETMITVAGDSAGANVIMAATNLNQQLGSNRINQQLLLYPVTAPNADHAGPLWDLAAFPIIDSQRAILTNYHDLFRQLDSIMTDYYVPENFDSHSPLISPLHQENFTMTPPTTIMVGEFDPFRPQAWAYAQRLAAADTATTFIQYQGLNHAFAPLVDQYWQSQDVAQVMAAALI",stoichiometry N,[3],2
